These results are taken from patent US20220098635A1.

In experiment [1] the target is Thiolated streptavidin (UniProt P22629). The experiment can be described thus: single-molecule conductance distribution (counts against Log G, fitted peaks); bis-biotinylated phi29 polymerase in a junction of palladium electrodes coated with thiolated streptavidin.
For experiment [2] the target is unchanged. Nature of the experiment: single-molecule conductance distribution (counts against Log G, fitted peaks); two-Avitag phi29 polymerase without flexible linker wired with biotin-streptavidin; the same distribution as 52 in Fig. 5B.

Chain of Thiolated streptavidin (P22629 37-163 limits assumed): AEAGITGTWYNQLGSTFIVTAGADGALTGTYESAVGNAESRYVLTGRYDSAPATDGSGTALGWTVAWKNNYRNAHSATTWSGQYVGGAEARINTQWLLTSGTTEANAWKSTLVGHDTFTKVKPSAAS

In turn, “bis-biotinylated ϕ29 polymerase (from UniProt P03680 1-111; P03680 112-279; P03680 280-575) (enzyme)” came in with a conductance peak (circled feature 53) in the experiment with Thiolated streptavidin [1] of 3.98 nS. The conductance peak (circled feature 1103) in the experiment with Thiolated streptavidin [2] is 3.98 nS.
